Patent publication US10413607B2, “Antibody specifically binding to ErbB3 and use thereof” (ISU ABXIS CO., LTD., priority 2015, dated 2019)

Biological target: T1, recombinant human ErbB3 protein (Homo sapiens, UniProt P21860)
T1 construct: purchased R&D systems
Assay: Binding affinity of anti-ErbB3 antibody to human ErbB3 protein (Octet QK384)
Details: immobilized human ErbB3; for ka (association constant): binding phase about 900 seconds; for kd (dissociation constant): dissociation phase about 1200 seconds
Description: In particular, the binding affinities of the anti-ErbB3 antibodies to the recombinant human ErbB3 protein (R&D systems) and the antigen-antibody interactive dynamics were measured using an Octet® QK384 system (Pall Life Sciences). After activation of carboxyl groups in 20 mM of 1-ethyl-3-(3-dimethylaminopropyl)carbodiimide hydrochloride (EDC) and 40 mM of N-hydroxysulfosuccinimide (sulfo-NHS) solution on an AR2G sensor (ForteBio), 10 μg/mL of human ErbB3 protein solution diluted with 10 mM of sodium acetate (pH 4.0) (ForteBio) was added to immobilize human ErbB3 protein onto the AR2G sensor. The AR2G sensor to which the human ErbB3 protein was immobilized was treated with 1 M of ethanolamine (ForteBio) to inactivate the remaining unreacted carboxyl groups.

Molecule | ka (association constant) [M⁻¹ s⁻¹] | kd (dissociation constant) [s⁻¹]
451M1: modified anti-ErbB3 antibody from lead antibody 451P (CDR mutagenesis) (antibody, V domains shown, Heavy chain variable region of antibody 451M1; Light chain variable region of antibody 451M1) VH: EVQLLESGGGLVQPGGSLRLSCAASGFTFSDYDMSWVRQAPGKGLEWVSAIYYDSGSIYYADSAKGRFTISRDNSKNTLYLQMNSLRAEDTAVYYCAKDRLFMSDSTFDYWGQGTLVTVSS VL: QSVLTQPPSASGTPGQRVTISCSGSPSNIGNNSVTWYQQLPGTAPKLLIYYDSHRPSGVPDRFSGSKSGTSASLAISGLRSEDEADYYCGSWDASLNGYVFGGGTKLTVLG | 1.24e+06 | 3.08e-05
451M4: modified anti-ErbB3 antibody from lead antibody 451P (CDR mutagenesis) (antibody, V domains shown, Heavy chain variable region of antibody 451M4; Light chain variable region of antibody 451M4) VH: EVQLLESGGGLVQPGGSLRLSCAASGFTFSYYDMSWVRQAPGKGLEWVSAIYYDSGSIYYADSAKGRFTISRDNSKNTLYLQMNSLRAEDTAVYYCAKDRLFASDSTFDYWGQGTLVTVSS VL: QSVLTQPPSASGTPGQRVTISCSGSPSNIGNNSVTWYQQLPGTAPKLLIYYDSHRPSGVPDRFSGSKSGTSASLAISGLRSEDEADYYCGSWDASLNGYVFGGGTKLTVLG | 2.01e+06 | 1.23e-05
451M5: modified anti-ErbB3 antibody from lead antibody 451P (CDR mutagenesis) (antibody, V domains shown, Heavy chain variable region of antibody 451M5; Light chain variable region of antibody 451M5) VH: EVQLLESGGGLVQPGGSLRLSCAASGFTFSDYDMSWVRQAPGKGLEWVSAIYYDSGSIYYADSAKGRFTISRDNSKNTLYLQMNSLRAEDTAVYYCAKDRLFESDSTFDYWGQGTLVTVSS VL: QSVLTQPPSASGTPGQRVTISCSGSPSNIGNNSVTWYQQLPGTAPKLLIYYDSHRPSGVPDRFSGSKSGTSASLAISGLRSEDEADYYCGSWDASLNGYVFGGGTKLTVLG | 1.52e+06 | 3.29e-05
451M2: modified anti-ErbB3 antibody from lead antibody 451P (CDR mutagenesis) (antibody, V domains shown, Heavy chain variable region of antibody 451M2; Light chain variable region of antibody 451M2) VH: EVQLLESGGGLVQPGGSLRLSCAASGFTFSDYDMSWVRQAPGKGLEWVSAIYYDSGSIYYADSAKGRFTISRDNSKNTLYLQMNSLRAEDTAVYYCAKDRLFASDSTFDYWGQGTLVTVSS VL: QSVLTQPPSASGTPGQRVTISCSGSPSNIGNNSVTWYQQLPGTAPKLLIYYDSHRPSGVPDRFSGSKSGTSASLAISGLRSEDEADYYCGSWDASLNGYVFGGGTKLTVLG | 1.24e+06 | 1.56e-05
451M3: modified anti-ErbB3 antibody from lead antibody 451P (CDR mutagenesis) (antibody, V domains shown, Heavy chain variable region of antibody 451M3; Light chain variable region of antibody 451M3) VH: EVQLLESGGGLVQPGGSLRLSCAASGFTFSHYDMSWVRQAPGKGLEWVSAIYYDSGSIYYADSAKGRFTISRDNSKNTLYLQMNSLRAEDTAVYYCAKDRLFASDSTFDYWGQGTLVTVSS VL: QSVLTQPPSASGTPGQRVTISCSGSPSNIGNNSVTWYQQLPGTAPKLLIYYDSHRPSGVPDRFSGSKSGTSASLAISGLRSEDEADYYCGSWDASLNGYVFGGGTKLTVLG | 1.87e+06 | 2.3e-07
